Positions of bridges follow the written chain, without caps; N, C: chain ends. Residues, ends and D or L forms follow the SMILES beside them. No end group written: not given here.
Legend:
[1] = tested on: human erythrocytes; assay: Erythrocytes hemagglutination; assay type: cell-based; conditions: blood group not named
[2] = Stability of 125I-odorranalectin in mice plasma in vitro; assay type: in vitro ADME; conditions: mice plasma 100% (v/v) and 50% in PBS pH 7.4, 5 µCi, 37 °C, sampled 0-5 h; radiochemical purity by silica gel paper chromatography and HPLC with radioactive detector
Procedure: In order to evaluate the stability of ^125I- odorranalectin in vitro, a degradation experiment of ^125I-odorranalectin in mice plasma was performed. The details are provided in the supplementary materials (Materials and Methods S1).
Stability of ^125I-odorranalectin in vitro. In order to evaluate the stability of ^125I- odorranalectin in vitro, a degradation experiment of ^125I-odorranalectin in mice plasma was performed. Briefly, 5 µCi ^125I-odorranalectin (about 10 µl) was added to 790 µl plasma (100%, v/v) freshly prepared and 400 µL plasma (50%) admixed with 390 µl PBS (pH 7.4) in two 1.5-ml centrifuge tubes, respectively, which maintained at 37 °C in a rolling water-bath incubator. Then at each time point (0, 1, 2, 3, 4 and 5 h), a glass microcap was used to take samples for silica gel paper chromatography (SGPC) analysis and high-performance liquid chromatography (HPLC) for calculating the radiochemical purity of ^125I-odorranalectin. In detail, the developing agent of SGPC was methanol: water = 85:15 (v/v); After spotted and the solvent reached the frontier, the silica gel paper strip was dried and cut to ten equations (Fig. S3 and Table S7), and then set in 10 tubes, following determined radiocounting of each piece in a SN-695 Intellectual Radio-immunity γ Measurement (Shanghai Institute of Nuclear Research Ri Huan Instrument Factory, China), respectively. […]

[3] = SPR, odorranalectin and its mutants binding L-fucose; conditions: peptide immobilized, L-fucose as analyte, NA = no binding to L-fucose, read-out: binding affinity (KD)
Procedure: Real time detection of odorranalectin and its mutants binding to glycoproteins and L-fucose was recorded by using a Biacore 3000 [21]–[24]. The details are provided in the supplementary materials (Materials and Methods S1).
SPR Analysis. Real time detection of odorranalectin and its mutants binding to glycoproteins and L-fucose was recorded by using a Biacore 3000 [21-24]. Odorranalectin was immobilized covalently via their primary amines to carboxyl groups within a dextran layer on the sensor chip CM-5 according to the manufacturer’s specifications. After chip activation with 0.4 M 1-ethyl-3- (3-dimethylaminopropyl) carbodiimide hydrochloride and 10 mM N-hydroxysuccinimide, odorranalectin or its mutants (in 10 mM sodium acetate buffer, pH 4.0) at a concentration of 100 μg/ml was passed through the flow cells at a rate of 5 μl/min. After immobilization, the chip was capped by exposure to 1 M ethanolamine (pH 8.5).
All analyses were performed at a flow rate of 30 μl/min. Before loading of analytes, the chip was equilibrated with 10 mM HEPES-buffered saline containing 3 mM EDTA and 0.005% surfactant P-20, pH 7.4 (HBS-EP). […]
Association and dissociation rate constants (ka and kd) were calculated by using BIA evaluation 4.0 software (Biacore AB, Sweden). The affinity constant (KD) was calculated from the ka and kd. […]

[4] = Tissue distribution of 125I-odorranalectin in vivo; set-up: species or system KM mice; conditions: 400 µCi·kg^-1, mice, 5-300 min, Mean ± SD, n=3
Procedure: Sixty-three female KM mice (18∼22 g) were grouped randomly into three groups receiving oral, intravenous and intranasal administration of ^125I-odorranalectin at equal radiation dose (400 µCi·kg^−1), respectively. The detail procedures are provided in the supplementary materials (Materials and Methods S1).
(§1) Each experiment was carried out in triplicate. Values are given as means±SD. All the concentration data were plotted directly as radiocounting-time curves of the blood and tissues, and the area under the curve (AUC0→t) was calculated by the trapezoidal rule. The statistical differences between per oral or intranasal administrations and intravenous administration were assessed using student's t test and P<0.05 as statistical significance.
Tissue distribution of ^125I-odorranalectin in vivo. Sixty-three female KM mice (18~22 g) were grouped randomly to three groups receiving oral, intravenous and intranasal administration at equal radiation dose (400 µCi·kg^-1), respectively. The procedure for intranasal administration was performed gently and slowly so as to allow the mice to inhale all of the preparations (each nostril 10 µl). At different time intervals (5, 15, 30, 60, 120, 180 and 300 min) following administration, blood sample was collected via eye puncture; subsequently, the mice were humanly sacrificed, and tissues such as heart, liver, spleen, lung, stomach (content removed), kidney and brain were harvested and stuffed into a special tube after the remnant blood was blotted by tissue paper, following weighing, respectively. Finally, the radiocounting of each tissue was determined in a SN-695 Intellectual Radio-immunity γ Measurement to evaluate odorranalectin intake.
as §1, with “Data analysis. Each” for “Each”, “means ± SD.” for “means±SD.”, “under” for “under the”, “student’s” for “student's”, “P< 0.05” for “P<0.05”

Compound: CC(C)C[C@@H]1NC(=O)[C@H](C(C)C)NC(=O)CNC(=O)[C@H](CC(N)=O)NC(=O)[C@@H]2CCCN2C(=O)[C@H](Cc2ccc(O)cc2)NC(=O)[C@H](CCCNC(=N)N)NC(=O)[C@H](Cc2ccccc2)NC(=O)[C@@H](NC(=O)[C@H](CCCCN)NC(=O)[C@@H]2CCCN2C(=O)[C@H](CO)NC(=O)[C@H](C)NC(=O)[C@@H](N)Cc2ccc(O)cc2)CSSC[C@@H](C(=O)N[C@H](C(=O)O)[C@@H](C)O)NC(=O)[C@H](C)NC1=O [odorranalectin] (HELM PEPTIDE1{Y.A.S.P.K.C.F.R.Y.P.N.G.V.L.A.C.T}$PEPTIDE1,PEPTIDE1,6:R3-16:R3$$$V2.0)
- minimum concentration (MIC) to agglutinate intact human erythrocytes [1]: 0.75 µg/mL
- Time of stability in mice plasma [2]: more than 5 hours

Compound: YASPGGFRYPNGVLACT [Odorranalectin T17/G17]
- Kd [3]: 8.2 mM

Compound: ^125I-odorranalectin: odorranalectin labeled by 125I with iodogen method (YASPKCFRYPNGVLACT; disulfide 6-16; ends not checked; also: 125I on a tyrosine, which one is not given here)
- Time of stability in mice plasma [2]: at least 5 hours
- AUC Blood ([4]; in (intranasal)): 6.77±3.05 *10^7 CPM·min
- AUC Brain ([4]; in (intranasal)): 0.36±0.15 *10^7 CPM·min
- AUC Heart ([4]; in (intranasal)): 2.88±1.16 *10^7 CPM·min
- AUC Kideny ([4]; in (intranasal)): 5.17±2.10 *10^7 CPM·min
- AUC Liver ([4]; in (intranasal)): 3.53±1.50 *10^7 CPM·min
- AUC Lung ([4]; in (intranasal)): 12.50±3.77 *10^7 CPM·min
- AUC Spleen ([4]; in (intranasal)): 4.48±1.86 *10^7 CPM·min
- AUC Stomach ([4]; in (intranasal)): 125.61±44.28 *10^7 CPM·min
- AUC Blood ([4]; iv): 5.41±1.11 *10^7 CPM·min
- AUC Brain ([4]; iv): 0.46±0.047 *10^7 CPM·min
- AUC Heart ([4]; iv): 3.37±0.51 *10^7 CPM·min
- AUC Kideny ([4]; iv): 8.47±1.41 *10^7 CPM·min
- AUC Liver ([4]; iv): 98.51±6.22 *10^7 CPM·min
- AUC Lung ([4]; iv): 246.41±62.56 *10^7 CPM·min
- AUC Spleen ([4]; iv): 64.82±8.61 *10^7 CPM·min
- AUC Stomach ([4]; iv): 20.90±3.09 *10^7 CPM·min
- AUC Blood ([4]; po): 4.89±0.69 *10^7 CPM·min
- AUC Brain ([4]; po): 0.25±0.024 *10^7 CPM·min
- AUC Heart ([4]; po): 1.99±0.24 *10^7 CPM·min
- AUC Kideny ([4]; po): 3.84±0.76 *10^7 CPM·min
- AUC Liver ([4]; po): 2.42±0.29 *10^7 CPM·min
- AUC Lung ([4]; po): 4.02±0.51 *10^7 CPM·min
- AUC Spleen ([4]; po): 3.60±0.35 *10^7 CPM·min
- AUC Stomach ([4]; po): 126.64±32.27 *10^7 CPM·min
